How the values were obtained:
[1] = tested on: bone-marrow derived dendritic cells; experiment: Microarray gene expression analysis in BMDCs; type: cell-based, C57BL/6J mice; conditions: 4 h
Method: All methods mentioned in this example were carried out as described in Example 1. BMDCs were seeded into a tissue-culture-treated 96-well plate in VLE-RPMI 1640 media (10% FCS, 10% Penicillin-Streptomycin, 50 μM β-Mercaptoethanol) and stimulated with 200 nM huBPI or muBPI. 4 h after stimulation, gene expression analysis was performed by microarray analysis (Affymetrix Mouse Gene 2.0 ST, FIGS. 2A and 2B).

[2] = tested on: murine macrophages (BMDM); experiment: TNFα ELISA in murine macrophages (BMDM); type: cell-based; conditions: LPS Ec 10 ng/ml or BPI 100 nM, 18 h, ELISA (FIG. 4B)
Method: Generation of BMDM was carried out similarly to BMDCs; MCSF was used instead of GMSCF for differentiation of BMDM. Cells were re-plated on day 1 of culture and harvested on day 5. On day 1, cells were seeded in new plates and harvested on day 5 for the experiments. Cells were stimulated with LPS Ec (10 ng/ml) or BPI (100 nM) for 18 h before supernatants were collected. TNFα levels were determined by ELISA (OPTEIA™ Murine TNFα ELISA Set, BD Bioscience, Heidelberg, Germany).

[3] = tested on: co-culture of lymphnode cells (LNCs) and dendritic cells (DCs); experiment: Co-culture of lymph node cells and BMDCs, cytokine secretion; type: cell-based, C57BL/6J mice; conditions: BPI 200 nM, n=5 (FIG. 12)
Method: All methods mentioned in this example were carried out as described in the preceding examples. Peripheral lymph nodes of C57BL/6J mice were collected to obtain lymph node cells. The cells were isolated by pressing the lymph nodes through a […] cell strainer, flushing the homogenate with either RPMI-VLE or PBS, and collecting the cell dispersion in a 50 ml falcon tube. The suspension was centrifuged (300×g, 21° C., 8 min) and the cell pellet was resuspended in 2 to 5 ml of cell culture medium (VLE-RPMI 1640 medium containing glutamine supplemented with 10% heat-inactivated FCS, 10% penicillin-streptomycin and 50 μM sterile-filtered β-Mercaptoethanol). After this procedure the cell suspension was washed once or twice in cell culture medium or PBS by centrifugation (300×g, 21° C., 8 min). BMDCs were seeded and co-cultured with a threefold excess of peripheral lymph node cells in the presence or absence of BPI (200 nM) in in cell culture medium. Supernatans were collected and measured as described in preceding examples.

[4] = tested on: bone marrow derived dendritic cells (BMDCs); experiment: FACS surface expression of maturation markers/costimulatory molecules on BMDCs; type: cell-based, C57BL/6J mice; conditions: huBPI 200 nM, 18 h, vs unstimulated cells, n=4 (FIG. 1)
Method: BMDCs were generated from the bone marrow of male C57BL/6J mice at the age of approximately 3 to 7 months, which were bred under SPF conditions. BMDCs were generated as previously described. BMDCs were harvested on day 7 by rinsing the dish in order to obtain the non-adherent and loosely-adherent cell fractions.
Cell Stimulation 5×10^4 BMDCs per well were seeded into a tissue-culture-treated 96-well plate in VLE-RPMI 1640 media (10% FCS, 10% Penicillin-Streptomycin, 50 µM β-Mercaptoethanol) and stimulated with 200 nM huBPI.
BMDCs were stimulated with huBPI (200 nM) for 18 h. After the stimulation period, the stimulated and unstimulated cells were incubated with Fc-Block and stained using the indicated antibodies (Table 1) and the respective isotype controls (Table 2). 7-Aminoactinomycin D (7-AAD, #00-6993-50, eBioscience) positive stained cells were excluded from the analysis. Flow cytometry measurement was performed using the instrument BD FACS Canto™ II (BD Bioscience). Data was analyzed using BD FACSDiva™ software v.7.0 (BD Bioscience) as well as FlowJo v.10 (Tree Star).

[5] = tested on: human peripheral blood mononuclear cells; experiment: Stimulation of human peripheral blood mononuclear cells, TNFα ELISA; type: cell-based; conditions: BPI 500 nM, 18 h
Method: After informed consent, blood was drawn from healthy male volunteers using heparinized blood collection tubes and PBMCs were separated using leucosep tubes containing FICOLL® PAQUE PLUS (Oxford Immunotec, Abingdon, Great Britian) at 1,000×g for 10 min. The pellet was resuspended in AIM VR Medium (Thermo Fisher Scientific Inc., Waltham, MA, USA), counted, and cultivated in 96-well plates for 4 h (1×10^5/100 μl). Then cells were stimulated with (R)-Pam3CSK4 (bLP, 1 nM) or LTA S. pneumoniae Δlgt (a lipoprotein deficient strain, LTA SPΔlgt, 1 μM, n=4) in the presence or absence of BPI (500 nM). The supernatants were collected after 18 h for determination of cytokine concentration by ELISA according to the manufacturer's instructions (OPTEIA™ Human TNFα ELISA Set, BD Biosciences, Heidelberg, Germany).

B1: bactericidal/permeability-increasing protein (protein)
chain: RIKIPDYSDSFKIKHLGKGHYSFYSMDIREFQLPSSQISMVPNVGLKFSISNANIKISGKWKAQKRFLKMSGNFDLSIEGMSISADLKLGSNPTSGKPTITCSSCSSHINSVHVHISKSKVGWLIQLFHKKIESALRNKMNSQVCEKVTNSVSSELQPYFQTLPVMTKIDSVAGINYGLVAPPATTAETLDVQMKGEFYSENHHNPPPFAPPVMEFPAAHDRMVYLGLSDYFFNTAGLVYQEAGVLKMTLRDDMIPKESKFRLTTKFFGTFLPEVAKKFPNMKIQIHVSASTPPHLSVQPTGLTFYPAVDVQAFAVLPNSSLASLFLIGMHTTGSMEVSAESNRLVGELKLDRLLLELKHSNIGPFPVELLQDIMNYIVPILVLPRVNEKLQKGFPLPTPARVQLYNVVLQPHQNFLLFGADVVYK
modifications: labeled with NT647 (Monolith NT Protein Labeling Kit RED-NHS) in the MST experiments
notes: recombinant human BPI, aa32-487 of huBPI with N-terminal HA signal peptide, expressed in HEK293T cells
immunostimulatory effect on BMDCs (gene expression) ([1]; 200 nM huBPI or muBPI, microarray (FIG. 2A)): shows an immunostimulatory effect on BMDCs
induced genes important for activation and priming of T cells ([1]; 200 nM, microarray (FIG. 2B)): IL-2 is the highest induced cytokine
TNFα secretion by macrophages [2]: not in response to stimulation with BPI
secretion of IL-4 in co-culture of LNCs and BMDCs [3]: not observed
secretion of IFNγ and IL-17 in co-culture of LNCs and BMDCs ([3]; threefold excess of lymph node cells): Significant secretion
expression of costimulatory receptors CD40, CD80, and CD86 [4]: promotes expression of costimulatory receptors CD40, CD80, and CD86
effect of BPI alone on PBMCs [5]: minor effect

Reference: US12527862B2, “Bactericidal/permeability increasing protein for use in a method of immunization, preferably as an adjuvant in a method of vaccination” (UNIVERSITÄT REGENSBURG, priority 2018, dated 2026)
